Article PMC2878840

Molecular target: hypoglycosylated E-cadherin variant V13 (V13-flag) (human)
Assay: co-IP

“protein phosphatase 2A catalytic subunit (from UniProt A0A8I3NN81 1-306) (enzyme)” showed a fold change of co-precipitated PP2A against wild type E-cadherin of 2 fold.
